Reference: publication PMC5347741

Test: immunohistochemistry, nude mouse xenograft
Details: glycan changed form; control: untransfected CAOV3 cells

B1: CD147: FUT1 transfection (CA-FUT1) (protein)
parent chain: MAAALFVLLGFALLGTHGASGAAGTVFTTVEDLGSKILLTCSLNDSATEVTGHRWLKGGVVLKEDALPGQKTEFKVDSDDQWGEYSCVFLPEPMGTANIQLHGPPRVKAVKSSEHINEGETAMLVCKSESVPPVTDWAWYKITDSEDKALMNGSESRFFVSSSQGRSELHIENLNMEADPGQYRCNGTSSKGSDQAIITLRVRSHLAALWPFLGIVAEVLVLVTIIFIYEKRRKPEDVLDDDDAGSAPLKSSGQHQNDKGKNVRQRNSS
**Q.** For B1, which expression_or_secretion is on record?
**A.** increases
